Ends that are not written are not given here. * marks the point of attachment. DOTA = O=C(O)CN1CCN(CC(=O)O)CCN(CC(=O)*)CCN(CC(=O)O)CC1
Key:
[1] = biological target: T1, Recombinant human integrin αvβ6 (human), P06756; assay: cell sorting study, peptide expressed on the surface of yeast
T1 chain 1: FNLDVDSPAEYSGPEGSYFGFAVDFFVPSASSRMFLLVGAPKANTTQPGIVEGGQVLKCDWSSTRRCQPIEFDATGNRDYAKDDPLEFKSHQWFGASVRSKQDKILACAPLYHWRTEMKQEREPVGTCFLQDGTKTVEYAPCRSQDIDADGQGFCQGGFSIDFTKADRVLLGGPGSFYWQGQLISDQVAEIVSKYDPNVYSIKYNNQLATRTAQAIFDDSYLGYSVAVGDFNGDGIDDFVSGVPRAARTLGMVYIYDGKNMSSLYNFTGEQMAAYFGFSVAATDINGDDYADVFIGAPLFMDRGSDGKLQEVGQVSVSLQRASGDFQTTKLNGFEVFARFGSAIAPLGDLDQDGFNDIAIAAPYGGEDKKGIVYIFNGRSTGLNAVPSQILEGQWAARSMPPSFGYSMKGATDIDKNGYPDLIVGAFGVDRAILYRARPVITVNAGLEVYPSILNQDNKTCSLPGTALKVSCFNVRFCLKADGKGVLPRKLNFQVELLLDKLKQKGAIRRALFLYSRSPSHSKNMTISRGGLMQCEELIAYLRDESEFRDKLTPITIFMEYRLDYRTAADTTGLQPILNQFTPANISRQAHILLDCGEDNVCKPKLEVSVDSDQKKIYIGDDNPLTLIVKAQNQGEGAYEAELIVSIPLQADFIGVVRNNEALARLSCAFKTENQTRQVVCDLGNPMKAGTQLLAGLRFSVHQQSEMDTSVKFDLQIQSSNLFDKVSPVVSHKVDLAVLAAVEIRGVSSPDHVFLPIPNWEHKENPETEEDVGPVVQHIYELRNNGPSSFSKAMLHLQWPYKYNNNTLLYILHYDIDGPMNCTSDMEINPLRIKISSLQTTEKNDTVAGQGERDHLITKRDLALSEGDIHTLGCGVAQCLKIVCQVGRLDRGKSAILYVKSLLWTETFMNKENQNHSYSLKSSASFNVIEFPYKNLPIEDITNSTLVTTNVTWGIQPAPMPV
T1 chain 2: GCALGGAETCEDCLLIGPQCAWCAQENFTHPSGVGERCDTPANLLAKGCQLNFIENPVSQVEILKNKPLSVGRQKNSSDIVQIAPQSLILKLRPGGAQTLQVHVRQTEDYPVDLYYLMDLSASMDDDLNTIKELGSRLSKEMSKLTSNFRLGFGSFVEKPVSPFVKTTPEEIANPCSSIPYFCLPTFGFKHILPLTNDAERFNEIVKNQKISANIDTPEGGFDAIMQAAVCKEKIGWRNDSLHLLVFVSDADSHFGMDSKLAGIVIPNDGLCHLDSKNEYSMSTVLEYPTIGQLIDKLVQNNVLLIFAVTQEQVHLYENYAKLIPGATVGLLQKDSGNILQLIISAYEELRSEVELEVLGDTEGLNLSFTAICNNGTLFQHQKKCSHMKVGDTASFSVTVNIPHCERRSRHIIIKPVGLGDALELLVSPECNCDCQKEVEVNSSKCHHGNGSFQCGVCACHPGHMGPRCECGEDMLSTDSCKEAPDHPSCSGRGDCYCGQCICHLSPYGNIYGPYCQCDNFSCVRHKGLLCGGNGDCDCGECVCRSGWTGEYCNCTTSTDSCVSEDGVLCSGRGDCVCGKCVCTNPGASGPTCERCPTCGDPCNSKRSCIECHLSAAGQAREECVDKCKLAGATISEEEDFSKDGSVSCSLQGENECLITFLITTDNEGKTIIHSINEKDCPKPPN

[2] = biological target: T2, Recombinant human integrin αvβ6 (human, UniProt P06756 31-992; P18564 22-707); assay: as above
T2 construct: Bought soluble heterodimer; also called alpha-v-beta-6; avb6

[3] = biological target: Recombinant human integrin α5β1 (human, UniProt P08648 42-995; P05556 21-728); assay: flow cytometry, peptide displayed on yeast, soluble integrin (FIG. 1C)
[4] = biological target: T2, Recombinant human integrin αvβ6; assay: flow cytometry, peptide displayed on yeast, soluble integrin αvβ6
[5] = biological target: T2, Recombinant human integrin αvβ6; assay: binding of scrambled peptide to soluble integrin αvβ6, normalised to R02 at 1 nM (FIG. 3A)
[6] = biological target: Recombinant human integrin αvβ5 (human, UniProt P06756 31-992; P18084 24-719); assay: flow cytometry, peptide displayed on yeast, soluble integrin (FIG. 1C)
[7] = biological target: Recombinant human integrin αvβ3 (human, UniProt P06756 31-992; P05106 27-718); assay: as above
[8] = biological target: T2, Recombinant human integrin αvβ6; assay: flow cytometry, 10 nM integrin αvβ6, relative to R02
[9] = biological target: T3, Native integrin αvβ6 on cells (BxPC-3, A431) (human, UniProt P06756 31-1048; P18564 22-788); assay: cell uptake assay with radiolabeled peptide (FIG. 5)
T3 construct: whole, on cells; The cells also carry other integrins; also called integrin αvβ6 expressing cells; target expressing cells

[10] = biological target: T2, Recombinant human integrin αvβ6; assay: flow cytometry of yeast-displayed grafts with integrin αvβ6 (data not shown)

Recombinant human integrin αvβ3, sequence (P05106 27-718, one chain of several): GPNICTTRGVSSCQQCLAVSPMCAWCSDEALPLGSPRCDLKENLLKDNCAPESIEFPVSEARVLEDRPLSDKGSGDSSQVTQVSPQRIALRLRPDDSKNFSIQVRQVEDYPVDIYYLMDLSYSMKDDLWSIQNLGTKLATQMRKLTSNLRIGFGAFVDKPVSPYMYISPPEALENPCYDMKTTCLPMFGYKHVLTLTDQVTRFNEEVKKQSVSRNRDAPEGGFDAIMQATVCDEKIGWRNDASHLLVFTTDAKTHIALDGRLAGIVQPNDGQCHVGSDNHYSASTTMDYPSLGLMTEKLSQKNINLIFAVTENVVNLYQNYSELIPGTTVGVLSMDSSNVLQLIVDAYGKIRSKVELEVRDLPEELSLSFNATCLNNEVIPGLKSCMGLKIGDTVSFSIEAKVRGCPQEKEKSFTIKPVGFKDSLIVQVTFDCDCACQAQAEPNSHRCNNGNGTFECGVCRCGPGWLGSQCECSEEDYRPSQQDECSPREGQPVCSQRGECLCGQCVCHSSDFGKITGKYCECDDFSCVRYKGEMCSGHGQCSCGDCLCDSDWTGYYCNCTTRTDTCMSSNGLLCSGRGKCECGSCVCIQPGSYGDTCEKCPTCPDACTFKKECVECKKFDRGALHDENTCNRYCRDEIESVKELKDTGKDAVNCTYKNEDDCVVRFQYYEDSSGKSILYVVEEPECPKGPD
Recombinant human integrin α5β1, sequence (P08648 42-995, chain 1 of 2): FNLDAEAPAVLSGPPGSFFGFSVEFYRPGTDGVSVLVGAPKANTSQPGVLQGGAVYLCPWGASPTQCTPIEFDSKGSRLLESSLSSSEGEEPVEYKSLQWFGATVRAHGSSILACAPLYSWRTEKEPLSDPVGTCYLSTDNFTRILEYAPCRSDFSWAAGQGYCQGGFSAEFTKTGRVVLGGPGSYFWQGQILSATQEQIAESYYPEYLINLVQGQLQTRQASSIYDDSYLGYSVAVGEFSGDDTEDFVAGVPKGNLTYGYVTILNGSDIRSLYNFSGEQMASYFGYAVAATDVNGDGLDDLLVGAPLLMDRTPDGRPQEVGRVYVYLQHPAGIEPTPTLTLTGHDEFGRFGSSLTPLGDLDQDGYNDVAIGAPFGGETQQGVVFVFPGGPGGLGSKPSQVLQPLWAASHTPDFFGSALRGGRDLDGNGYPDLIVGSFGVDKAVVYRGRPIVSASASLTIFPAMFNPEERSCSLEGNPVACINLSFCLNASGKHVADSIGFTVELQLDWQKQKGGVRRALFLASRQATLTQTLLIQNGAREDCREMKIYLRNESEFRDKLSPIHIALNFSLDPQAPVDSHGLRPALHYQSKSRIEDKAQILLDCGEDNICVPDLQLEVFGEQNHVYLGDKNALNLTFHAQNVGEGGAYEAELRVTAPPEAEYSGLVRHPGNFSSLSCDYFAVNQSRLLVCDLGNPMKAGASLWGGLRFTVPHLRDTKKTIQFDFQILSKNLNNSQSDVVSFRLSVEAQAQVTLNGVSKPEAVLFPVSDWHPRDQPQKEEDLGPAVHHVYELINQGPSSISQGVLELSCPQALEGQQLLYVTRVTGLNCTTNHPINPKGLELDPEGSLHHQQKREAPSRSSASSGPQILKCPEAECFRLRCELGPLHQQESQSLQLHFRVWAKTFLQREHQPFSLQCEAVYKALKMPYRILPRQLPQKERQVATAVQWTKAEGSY
Recombinant human integrin α5β1, sequence (P05556 21-728, chain 2 of 2): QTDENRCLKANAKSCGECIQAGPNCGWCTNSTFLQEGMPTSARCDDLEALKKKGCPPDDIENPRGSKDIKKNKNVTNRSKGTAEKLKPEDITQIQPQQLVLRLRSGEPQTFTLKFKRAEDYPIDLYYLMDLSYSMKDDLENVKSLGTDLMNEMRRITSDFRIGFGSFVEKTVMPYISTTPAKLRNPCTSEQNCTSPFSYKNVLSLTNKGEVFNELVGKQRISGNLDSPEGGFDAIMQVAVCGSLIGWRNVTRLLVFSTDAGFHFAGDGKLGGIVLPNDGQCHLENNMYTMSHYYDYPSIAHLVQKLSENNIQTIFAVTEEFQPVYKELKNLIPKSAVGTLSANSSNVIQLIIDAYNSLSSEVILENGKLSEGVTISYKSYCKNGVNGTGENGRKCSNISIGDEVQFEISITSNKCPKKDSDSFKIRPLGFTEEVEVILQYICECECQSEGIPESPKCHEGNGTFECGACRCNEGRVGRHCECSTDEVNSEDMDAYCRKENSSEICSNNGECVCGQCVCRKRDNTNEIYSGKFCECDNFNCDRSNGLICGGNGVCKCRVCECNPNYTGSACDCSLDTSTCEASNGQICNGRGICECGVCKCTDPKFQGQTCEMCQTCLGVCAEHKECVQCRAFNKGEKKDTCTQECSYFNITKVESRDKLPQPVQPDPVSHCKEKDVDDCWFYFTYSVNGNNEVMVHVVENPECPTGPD
Recombinant human integrin αvβ5, sequence (P18084 24-719, one chain of several): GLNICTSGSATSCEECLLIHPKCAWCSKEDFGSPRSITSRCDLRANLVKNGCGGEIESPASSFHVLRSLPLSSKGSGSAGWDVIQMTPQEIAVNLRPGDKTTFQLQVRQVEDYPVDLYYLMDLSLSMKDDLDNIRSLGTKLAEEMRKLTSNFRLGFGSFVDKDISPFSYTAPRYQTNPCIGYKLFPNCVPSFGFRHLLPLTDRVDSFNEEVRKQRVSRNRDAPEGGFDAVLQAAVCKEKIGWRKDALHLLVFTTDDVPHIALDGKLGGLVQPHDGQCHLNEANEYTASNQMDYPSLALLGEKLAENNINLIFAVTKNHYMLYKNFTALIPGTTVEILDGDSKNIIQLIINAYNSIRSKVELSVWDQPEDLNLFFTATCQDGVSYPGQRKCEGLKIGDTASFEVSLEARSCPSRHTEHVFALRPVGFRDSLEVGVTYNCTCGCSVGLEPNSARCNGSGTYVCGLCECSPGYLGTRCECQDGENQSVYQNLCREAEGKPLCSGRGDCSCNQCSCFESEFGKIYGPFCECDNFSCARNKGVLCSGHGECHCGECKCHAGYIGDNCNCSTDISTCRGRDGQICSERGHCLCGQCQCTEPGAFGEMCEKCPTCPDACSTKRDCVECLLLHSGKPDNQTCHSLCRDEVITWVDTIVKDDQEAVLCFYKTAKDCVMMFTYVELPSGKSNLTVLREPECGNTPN

Binder: GCILNRRTDLGTLLFRCRRDSDCPGACICRGNGYCG (modifications not checked) [MΔR]
- Kd [1]: 0.95 nM

Binder: GCILNGRTDLGTLLFRCRRDSDCPGACICRGNGYCG (modifications not checked) [MΔG]
- Kd [1]: 1.24 nM

Binder: GCILNMRTDLGTLLFRCRRDSDCPGACICRGNGYCG (also called wild-type R01; wt) [R01]
- Kd [2]: 1.07 nM
- binding result [3]: no binding
- Kd [4]: 3.6 nM

Binder: GCILNWRTDLGTLLFRCRRDSDCPGACICRGNGYCG (also called R01 tryptophan substitution) [MΔW]
- Kd [2]: 1.69 nM

Binder: GCILNMRDTLGTLLFRCRRDSDCPGACICRGNGYCG (also called scrambled R01) [scR01]
- binding result [5]: no binding (tested: 100 nM and 300 nM integrin αvβ6)

B1: R02 (peptide)
peptide: GCRSLARTDLDHLRGRCRRDSDCPGACICRGNGYCG
notes: also called activity '2' in the R0 scaffold
- binding result [6]: no binding
- binding result [3]: no binding
- binding result [7]: no binding
- Kd [4]: 3.2 nM

B2: E12 (peptide)
peptide: GCRSLARTDLDHLRGRCRRDSDCPGACICEGNGYCG
notes: also called activity '2' in glutamic acid-rich scaffold E1
- binding result [8]: binds

B3: E42 (peptide)
peptide: GCRSLARTDLDHLRGRCEEDSDCPGACICEGNGYCG
notes: also called activity '2' in glutamic acid-rich scaffold E4
- binding result [8]: binds

B4: R03 (peptide)
peptide: GCRLVFRTDLDHLRGRCRRDSDCPGACICRGNGYCG
notes: also called activity '3' in the R0 scaffold
- binding result [6]: no binding
- binding result [3]: no binding
- binding result [7]: no binding
- Kd [4]: 3.6 nM

B5: R12 (peptide)
peptide: GCRSLARTDLDHLRGRCRRDRDCPGACICRGNGYCG
notes: also called activity '2' in arginine-rich scaffold R1
- binding result [8]: binds

B6: R22 (peptide)
peptide: GCRSLARTDLDHLRGRCRRDSDCRGACICRGNGYCG
notes: also called activity '2' in arginine-rich scaffold R2
- binding result [8]: binds

B7: R32 (peptide)
peptide: GCRSLARTDLDHLRGRCRRDRDCRGACICRGNGYCG
notes: also called activity '2' in arginine-rich scaffold R3
- binding result [8]: binds

Binder: {DOTA}-GCRSLARTDLDHLRGRCRRDSDCPGACICRGNGYCG (cysteine pairing not given here; also: 64Cu complex of DOTA, also called 64Cu-DOTA-labeled R02) [64Cu-DOTA-R02]
- binding result [9]: binds

B8: S01 (peptide)
peptide: GCILNMRTDLGTLLFRCSSDSDCLAECICLENGFCG
notes: It says only that activity '1' was tested in the S0 scaffold; also called activity '1' in the S0 scaffold
- binding result [6]: no binding
- binding result [3]: no binding
- binding result [7]: no binding
- Kd [4]: 6.5 nM

Binder: GCGHPRTDLASLAKRCRRDSDCPGACICRGNGYCG (also called graft 2) [G2]
- binding result [10]: binds

Binder: GCGGHPRTDLASLAKRCRRDSDCPGACICRGNGYCG (also called graft 3) [G3]
- binding result [10]: binds

B9: S02 (peptide)
peptide: GCRSLARTDLDHLRDRCSSDSDCLAECICLENGFCG
modifications: disulfide (positions not given here); not fully specified (bridges); also: three disulfide bonds, places not given here
notes: also called activity '2' in the S0 scaffold
- binding result [6]: no binding
- binding result [3]: no binding
- binding result [7]: no binding
- Kd [4]: 6 nM

Binder: GCRSLARDTLDHLRDRCSSDSDCLAECICLENGFCG (also called scrambled S02) [scS02]
- binding result [5]: no binding (tested: 100 nM and 300 nM integrin αvβ6)

B10: S03 (peptide)
peptide: GCRLVFRTDLDHLRGRCSSDSDCLAECICLENGFCG
notes: It says only that activity '3' was tested in the S0 scaffold; The chain is composed here from the loop of R03 and the scaffold of S02, and the residue limits were counted by me; also called activity '3' in the S0 scaffold
- binding result [6]: no binding
- binding result [3]: no binding
- binding result [7]: no binding
- Kd [4]: 3.1 nM

Source: patent US20140271469A1 (Stanford University, published 2014)
